One assay has as its target FcγRI (UniProt P12314). The assay can be described thus: MSD assay, Fcγ receptor coated.
A further assay has as its target FcγRIIIa(F) (UniProt P08637). The assay can be described thus: MSD assay, Fcγ receptor coated.
A further assay concerns the target FcγRIIIa(V) (UniProt P08637). Put plainly: MSD assay, Fcγ receptor coated.
The target in a further assay is FcγRIIa(H) (UniProt P12318). The assay can be described thus: MSD assay, Fcγ receptor coated.
The target of another assay is FcγRIIb (UniProt P31994). Put plainly: MSD assay, Fcγ receptor coated.
The target in a further assay is Human C1q (human) (UniProt P02745). The assay can be described thus: ELISA, antibody coated, human C1q added. (An ELISA detects its analyte on a solid surface through an enzyme-linked reagent.)
Human C1q (human), sequence (P02745 23-245 limits assumed, chain 1 of 3): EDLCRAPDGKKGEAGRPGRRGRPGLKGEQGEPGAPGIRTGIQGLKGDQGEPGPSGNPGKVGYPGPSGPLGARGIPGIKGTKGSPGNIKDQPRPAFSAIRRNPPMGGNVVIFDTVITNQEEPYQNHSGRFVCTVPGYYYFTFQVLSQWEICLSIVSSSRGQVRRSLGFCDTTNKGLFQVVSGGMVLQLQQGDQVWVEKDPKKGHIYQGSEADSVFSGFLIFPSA
Human C1q (human), sequence (P02746 28-253 limits assumed, chain 2 of 3, further chain): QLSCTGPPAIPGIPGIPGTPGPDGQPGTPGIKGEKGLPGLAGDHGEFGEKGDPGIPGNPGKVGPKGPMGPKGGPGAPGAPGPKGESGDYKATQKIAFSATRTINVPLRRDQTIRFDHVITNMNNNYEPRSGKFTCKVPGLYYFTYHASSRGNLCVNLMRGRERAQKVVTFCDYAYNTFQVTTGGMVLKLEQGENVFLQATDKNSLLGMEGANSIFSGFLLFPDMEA
Human C1q (human), sequence (P02747 29-245 limits assumed, chain 3 of 3, further chain): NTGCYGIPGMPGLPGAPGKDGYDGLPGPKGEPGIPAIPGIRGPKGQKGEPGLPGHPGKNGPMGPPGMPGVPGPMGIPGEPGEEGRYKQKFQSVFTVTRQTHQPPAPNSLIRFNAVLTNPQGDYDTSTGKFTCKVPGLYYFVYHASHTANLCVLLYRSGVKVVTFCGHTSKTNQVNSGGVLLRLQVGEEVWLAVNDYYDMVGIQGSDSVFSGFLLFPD

FcγRIIIa(F), sequence (P08637 17-208 limits assumed): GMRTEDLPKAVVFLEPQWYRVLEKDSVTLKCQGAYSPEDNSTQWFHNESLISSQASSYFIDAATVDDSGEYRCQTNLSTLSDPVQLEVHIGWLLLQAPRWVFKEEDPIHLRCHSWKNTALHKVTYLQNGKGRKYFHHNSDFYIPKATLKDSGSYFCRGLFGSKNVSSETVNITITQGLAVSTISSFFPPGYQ
FcγRIIIa(V), sequence (P08637 17-208 F176V limits assumed): as the sequence (P08637 17-208 limits assumed) above, with F160V counted along it
FcγRIIb, sequence (P31994 43-217 limits assumed): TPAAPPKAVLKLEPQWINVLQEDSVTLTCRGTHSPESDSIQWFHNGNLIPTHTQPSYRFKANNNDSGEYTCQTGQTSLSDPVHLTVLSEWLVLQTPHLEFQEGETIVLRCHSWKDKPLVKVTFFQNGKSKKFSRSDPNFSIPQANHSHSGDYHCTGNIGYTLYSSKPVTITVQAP
FcγRIIa(H), sequence (P12318 36-218 limits assumed): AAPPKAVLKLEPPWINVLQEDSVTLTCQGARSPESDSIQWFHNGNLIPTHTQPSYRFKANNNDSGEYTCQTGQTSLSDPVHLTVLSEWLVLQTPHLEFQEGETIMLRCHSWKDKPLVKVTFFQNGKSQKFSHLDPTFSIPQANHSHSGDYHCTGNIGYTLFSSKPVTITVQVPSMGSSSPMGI
FcγRI, sequence (P12314 16-288 limits assumed): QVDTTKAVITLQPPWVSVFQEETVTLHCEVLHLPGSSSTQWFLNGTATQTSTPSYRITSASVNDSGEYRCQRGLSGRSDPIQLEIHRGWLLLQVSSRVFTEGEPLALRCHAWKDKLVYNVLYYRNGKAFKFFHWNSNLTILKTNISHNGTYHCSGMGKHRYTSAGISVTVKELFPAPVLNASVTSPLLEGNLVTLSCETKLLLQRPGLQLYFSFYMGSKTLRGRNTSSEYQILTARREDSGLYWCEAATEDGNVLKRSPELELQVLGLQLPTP

Usually EC50 stands for the concentration at which the effect is half-maximal. Take “Positive Control IgG1 (Intact Fc receptor effector functionality) (antibody)”: the EC50 in the assay with FcγRI was 0.8 nM; with FcγRIIIa(F), 19 nM; with FcγRIIIa(V), 6.2 nM; with FcγRIIa(H), 93.7 nM; in the assay with FcγRIIb it was more than 134 nM; with Human C1q (human) it was 8.9 nM.

The values are drawn from US20210054088A1.
